{"source": "paper PMC11874658", "about": "“CmHRE2L-CmACS6 transcriptional cascade negatively regulates waterlogging tolerance in Chrysanthemum”", "binders": {"B1": {"name": "Biotin-mP, probe with mutated cis-element 3 (dsDNA)", "DNA 1": "ACCTTCATATGCATGAAAAAAAAATTTTCCACTCAACA", "DNA 2": "TGTTGAGTGGAAAATTTTTTTTTCATGCATATGAAGGT"}}, "molecular_target": "CmHRE2-like (CmHRE2L) (UniProt A0AA96PUJ9 1-225)", "sequence (A0AA96PUJ9 entry or part of it)": "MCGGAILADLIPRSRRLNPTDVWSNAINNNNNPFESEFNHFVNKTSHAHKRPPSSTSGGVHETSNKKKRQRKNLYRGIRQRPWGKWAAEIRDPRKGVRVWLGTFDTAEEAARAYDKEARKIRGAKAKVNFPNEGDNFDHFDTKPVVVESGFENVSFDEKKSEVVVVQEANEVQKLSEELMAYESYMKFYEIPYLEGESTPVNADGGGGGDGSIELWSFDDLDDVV", "experiment": "EMSA; LightShift Chemiluminescent EMSA Kit (Thermo Fisher); buffer, salt, pH and temperature not stated", "conditions": "protein: recombinant; tags: GST (pGEX4T-1, N-terminal); label: biotin", "data": [{"binder": "B1", "values": [{"measurement": "binding result", "result": "no binding"}]}]}
